± gives the uncertainty stated by the source.
B1: Ankyrin-3, residues 4094 to 4171; numbered along this chain, Q12955 (parent)
chain: MAIVADHLGLSWTELARELNFSVDEINQIRVENPNSLISQSFMLLKKWVTRDGKNATTDALTSVLTKINRIDIVTLLE

Variants of: B1
Experiment: abundance fitness (aPCA) (normalised: wild type 0, dead -1); higher = more abundant; growth selection in yeast, the domain comes from the species named
Settings: Homo sapiens

Variant	abundance fitness
L61S	-0.665 ± 0.11
L61F	-0.823 ± 0.23
L61P	-0.921 ± 0.15
L61T	-1.05 ± 0.25
L61I	-0.355 ± 0.1
L61G	-0.954 ± 0.12
L61A	-0.732 ± 0.11
L61M	-0.223 ± 0.12
L61R	-0.412 ± 0.067
D59Q	0.052 ± 0.11
D59F	-0.565 ± 0.36
D59W	-0.201 ± 0.062
D59V	-0.117 ± 0.049
D59Y	-0.253 ± 0.15
D59S	-0.118 ± 0.052
D59G	-0.011 ± 0.056
D59P	-0.058 ± 0.094
D59M	0.022 ± 0.085
D59C	-0.036 ± 0.17
D59R	-0.072 ± 0.048
D59K	0.052 ± 0.078
D59E	-0.103 ± 0.069
D59H	-0.058 ± 0.15
D59A	-0.032 ± 0.074

Variant	abundance fitness
D59L	-0.133 ± 0.048
D59N	-0.228 ± 0.15
V64L	0.111 ± 0.07
V64K	-0.333 ± 0.47
V64P	0.037 ± 0.085
V64C	0.05 ± 0.12
V64N	-0.236 ± 0.35
V64W	-0.644 ± 0.26
V64Q	0.064 ± 0.17
V64E	0.001 ± 0.15
V64F	0.111 ± 0.052
V64D	-0.858 ± 0.25
V64M	0.064 ± 0.28
V64G	-0.05 ± 0.08
V64R	-0.298 ± 0.12
V64T	-0.087 ± 0.15
V64A	-0.081 ± 0.078
V64H	0.132 ± 0.12
V64Y	-0.166 ± 0.15
V64S	-0.06 ± 0.089
T58I	0.09 ± 0.22
T58F	-0.112 ± 0.15
T58R	-0.067 ± 0.051
T58P	-0.195 ± 0.054

Variant	abundance fitness
T58H	0.001 ± 0.091
T58A	-0.051 ± 0.06
T58L	-0.002 ± 0.05
T58D	0.086 ± 0.079
T58K	0.016 ± 0.13
T58G	-0.104 ± 0.04
T58Q	0.034 ± 0.11
T58N	-0.168 ± 0.17
T58V	0.05 ± 0.059
T58S	0.106 ± 0.058
T58M	0.173 ± 0.14
T58W	-0.123 ± 0.074
T58E	-0.113 ± 0.079
K67G	-0.525 ± 0.1
K67N	-0.48 ± 0.25
K67L	-0.641 ± 0.2
K67C	-0.436 ± 0.25
K67A	-0.135 ± 0.078
K67H	-0.247 ± 0.16
N55V	-0.114 ± 0.062
N55C	-0.157 ± 0.13
N55Q	0.011 ± 0.051
N55P	-0.603 ± 0.094
N55S	-0.021 ± 0.052

Variant	abundance fitness
N55W	-0.135 ± 0.065
N55D	0.066 ± 0.11
N55M	-0.047 ± 0.075
N55R	-0.073 ± 0.042
N55G	0.057 ± 0.038
N55L	-0.004 ± 0.042
N55F	-0.15 ± 0.1
N55H	-0.058 ± 0.094
N55T	-0.115 ± 0.087
N55A	0.007 ± 0.06
N55Y	-0.041 ± 0.15
N55E	-0.079 ± 0.093
W48V	-0.887 ± 0.29
W48T	-0.876 ± 0.26
W48P	-0.923 ± 0.28
W48R	-1 ± 0.23
W48I	-0.83 ± 0.32
W48L	-0.715 ± 0.11
W48C	-0.868 ± 0.35
W48H	-0.752 ± 0.38
W48M	-0.635 ± 0.31
W48G	-0.811 ± 0.25
W48Q	-0.808 ± 0.33
W48S	-0.928 ± 0.18

Variant	abundance fitness
T50V	-0.036 ± 0.051
T50S	-0.016 ± 0.054
T50E	-0.008 ± 0.075
T50M	0.035 ± 0.086
T50Y	0 ± 0.1
T50D	0.089 ± 0.045
T50Q	-0.024 ± 0.08
T50F	-0.247 ± 0.17
T50L	0.041 ± 0.044
T50A	0.097 ± 0.059
T50I	-0.18 ± 0.1
T50P	-1.02 ± 0.18
T50R	-0.094 ± 0.058
T50W	-0.065 ± 0.06
T50K	0.098 ± 0.082
T50G	0.026 ± 0.043
T50N	-0.204 ± 0.23
T50H	0.051 ± 0.081
V49K	-0.093 ± 0.098
V49Q	0.07 ± 0.1
V49A	0.022 ± 0.051
V49Y	0.021 ± 0.15
V49T	-0.115 ± 0.077
V49G	-0.168 ± 0.044

Variant	abundance fitness
V49I	-0.041 ± 0.082
V49C	-0.095 ± 0.07
V49F	-0.154 ± 0.11
V49E	0.087 ± 0.089
V49L	-0.058 ± 0.06
V49R	0.024 ± 0.057
V49N	0.057 ± 0.17
V49D	-0.392 ± 0.14
V49M	-0.082 ± 0.074
V49S	-0.034 ± 0.065
V49W	-0.361 ± 0.092
V49P	-1.02 ± 0.19
S63I	-0.287 ± 0.27
S63H	-0.051 ± 0.1
S63G	-0.031 ± 0.053
S63V	-0.061 ± 0.053
S63M	-0.046 ± 0.064
S63K	0.002 ± 0.097
S63Q	-0.012 ± 0.079
S63P	-0.137 ± 0.084
S63N	-0.106 ± 0.24
S63A	-0.014 ± 0.034
S63F	-0.153 ± 0.15
S63Y	-0.003 ± 0.13

Variant	abundance fitness
S63D	0.054 ± 0.12
S63W	-0.405 ± 0.086
S63T	0.023 ± 0.066
S63C	-0.11 ± 0.087
S63E	-0.075 ± 0.11
S63R	-0.004 ± 0.059
A60V	-0.019 ± 0.039
A60N	0.219 ± 0.18
A60G	-0.233 ± 0.048
A60S	-0.134 ± 0.071
A60L	-0.074 ± 0.054
A60K	-0.083 ± 0.19
A60T	-0.283 ± 0.14
A60C	-0.09 ± 0.13
A60Y	-0.417 ± 0.26
A60W	-0.458 ± 0.073
A60I	-0.28 ± 0.17
A60D	-0.627 ± 0.31
A60Q	-0.021 ± 0.069
A60E	0.061 ± 0.075
A60P	-0.993 ± 0.2
A60F	-0.086 ± 0.11
A60R	-0.081 ± 0.051
